The values below come from patent US6248554, “DNA sequence coding for a BMP receptor” (The Procter & Gamble Company, dated 2001).

First the molecules themselves.
T1: digit-removed BMP-2 (Homo sapiens (Human), UniProt P12643, 125I label by the chloramine-T method)
T1 sequence: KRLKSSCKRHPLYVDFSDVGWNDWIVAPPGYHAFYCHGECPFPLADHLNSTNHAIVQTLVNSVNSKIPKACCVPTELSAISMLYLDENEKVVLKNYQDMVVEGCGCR

T2: bone morphogenetic protein 2 (Homo sapiens (Human), UniProt P12643)
T2 sequence: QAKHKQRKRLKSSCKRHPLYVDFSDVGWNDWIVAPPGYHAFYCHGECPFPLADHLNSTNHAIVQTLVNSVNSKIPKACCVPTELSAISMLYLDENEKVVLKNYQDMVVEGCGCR

B1: bone morphogenetic protein 4 (ligand)
chain: SPKHHSQRARKKNKNCRRHSLYVDFSDVGWNDWIVAPPGYQAFYCHGDCPFPLADHLNSTNHAIVQTLVNSVNSSIPKACCVPTELSAISMLYLDEYDKVVLKNYQEMVVEGCGCR
modifications: 125I label by the chloramine-T method where used as tracer
B2: BMP receptor kinase protein-1 (receptor)
chain: QNLDSMLHGTGMKSDLDQKKPENGVTLAPEDTLPFLKCYCSGHCPDDAINNTCITNGHCFAIIEEDDQGETTLTSGCMKYEGSDFQCKDSPKAQLRRTIECCRTNLCNQYLQPTLPPVVIGPFFDGSIRWLVVLISMAVCIVAMIIFSSCFCYKHYCKSISSRGRYNRDLEQDEAFIPVGESLKDLIDQSQSSGSGSGLPLLVQRTIAKQIQMVRQVGKGRYGEVWMGKWRGEKVAVKVFFTTEEASWFRETEIYQTVLMRHENILGFIAADIKGTGSWTQLYLITDYHENGSLYDFLKCATLDTRALLKLAYSAACGLCHLHTEIYGTQGKPAIAHRDLKSKNILIKKNGSCCIADLGLAVKFNSDTNEVDIPLNTRVGTKRYMAPEVLDESLNKNHFQPYIMADIYSFGLIIWEMARRCITGGIVEEYQLPYYNMVPSDPSYEDMREVVCVKRLRPIVSNRWNSDECLRAVLKLMSECWAHNPASRLTALRIKKTLAKMVESQDVKI

Assay [1] addresses B2. Put plainly: whole cell binding of [125I]-BMP-4 (100 pM), nonspecific binding with 10 nM BMP-2, COS-7 cells transfected with pJT4-J159F. The protocol:
The detached cells are pelleted in a tabletop centrifuge, then resuspended in fresh media at a concentration of 6.25 ×10^6 cells/ml. The cell suspension (5 ×10^6 cells, 0.8 ml) is transferred to the cuvette from a BioRad "GENE PULSER" electroporation system (BioRad, Hercules, Calif.). The purified DNA plasmid (10 μg) is added to the cuvette, and the cells subjected to electoporation at 4.0 kV/cm, with a capacitance of 25 μFd. Cells are then plated and allowed to recover. Fresh media is supplied after 24 hr. At 48 hr, cells are ready to be tested for binding of BMP-4.
(§1) For whole cell binding experiments, COS-7 cells are transfected with pJT4-J159F as described in example 7. After electroporation, cells are seeded in 12 well plates at 670,000 cells/ell. Media is changed after 24 hr, and binding experiments are carried out at 48 hr. At that time, cells are washed once with binding buffer (50 mM Hepes buffer, pH 7.4, 128 mM NaCl, 5 mM KCl, 5 mM MgSO_4, 1.2 mM CaCl_2, 2 mg/ml BSA), then equilibrated in the same buffer at 4° C. for 30 min with gentle shaking. […] The solubilized cells are then transferred to fresh tubes and counted in a Packard Model 5005 "COBRA" Gamma Counter (Packard Instrument Co., Downers Grove, Ill.).

Another assay concerns the target T1, digit-removed BMP-2. The assay can be described thus: DSS crosslinking on transfected COS-7 cells, SDS-PAGE. The source says:
(§2) In this method, the bifunctional crosslinking reagent disuccinimidyl suberate (DSS) (Pierce Chemical, Rockford, Ill.) is used to covalently crosslink bound radiolabeled ligand to its receptor by reaction with free amino groups on lysine residues in the two proteins. Following the crosslinking, cellular proteins are separated by gel electrophoresis, and radioactive bands visualized. The labeled bands represent the receptor selectively "tagged" with the radiolabeled ligand. In this procedure, cells are transfected with pJT4-J159F as described in example 7, then seeded into 12 well plates at 670,000 cells/well. Media is changed after 24 hr. At 48 hr after electroporation, the cells are washed, equilibrated, and incubated with [^125I]-BMP-4 or [^125I]-DRBMP-2 and competing unlabeled ligands as described in this example for whole cell binding studies.
(§3) After completion of the 4 hour incubation with ligand, the cells are washed three times at 4° C. with 2 ml of binding buffer having the same composition as described above, except that no BSA is added. To each well is then added 1 ml of fresh BSA-free binding buffer, followed by freshly prepared DSS to a final concentration of 135 μM. After swirling gently to mix the DSS, the plates are incubated for exactly 15 minutes at 4° C. with gentle shaking. […]

Assay [2] deals with T2, bone morphogenetic protein 2. Put plainly: competition: 10 nM unlabelled BMP-2 greatly reduces the band of [125I]-BMP-4 or [125I]-DR-BMP-2 crosslinked to BRK-1.
Excerpt: as §2, §3

The target of assay [3] is B1. The assay can be described thus: saturation binding of [125I]-BMP-4 (10-1000 pM) on COS-7 cells transfected with BRK-1, nonspecific binding with 10 nM unlabelled BMP-4, LIGAND software. The protocol:
as §1, with “shaking. The buffer is then aspirated, and to each well is added 500 µl of binding buffer (4° C.), containing [^125I]-BMP-4 tracer (100 pM), as well as varying concentrations of unlabeled BMP-2, BMP-4, or other unlabeled ligand, depending on the assay. For determination of nonspecific binding, BMP-2 is added to the binding buffer at a final concentration of 10 nM.” for “shaking.”
In order to obtain a more quanitative characterization of binding to BRK-1, a saturation binding analysis is performed on COS-7 cells transfected with the cDNA for BRK-1, using the construct pJT4-J159F. Binding of [^125I]-BMP-4 is examined over a concentration range of 10–1000 pM, with nonspecific binding determined with 10 nM unlabeled BMP-4.

Broadly, the Kd is the concentration at which binding is half-saturated. A higher Kd goes with weaker binding.

With B1, the “specific binding relative to mock-transfected COS-7 cells” value in assay [1] amounted to 3 times.
On to B2, for which the binding result (in the assay with digit-removed BMP-2; in assay [2]) was “binds” each time. This molecule gave a Kd in assay [3] of 0.5 nM.
